Experimental data reported in US20090197812.

What was measured:
[1] = molecular target: T1, Human I-κBα
T1 chain: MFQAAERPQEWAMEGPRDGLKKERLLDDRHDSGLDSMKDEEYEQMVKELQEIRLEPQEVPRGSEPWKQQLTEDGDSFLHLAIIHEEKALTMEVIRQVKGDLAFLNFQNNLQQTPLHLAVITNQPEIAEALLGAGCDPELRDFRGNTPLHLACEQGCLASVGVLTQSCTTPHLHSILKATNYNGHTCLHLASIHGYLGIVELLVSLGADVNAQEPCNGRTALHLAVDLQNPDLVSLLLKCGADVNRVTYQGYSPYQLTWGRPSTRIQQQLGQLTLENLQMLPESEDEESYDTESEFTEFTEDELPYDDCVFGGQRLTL

[2] = molecular target: mutant I-κBα, the phosphorylation sites of which were modified

B1: transglutaminase (guinea pig liver, Sigma) (protein)
chain: AEDLILERCDLQLEVNGRDHRTADLCRERLVLRRGQPFWLTLHFEGRGYEAGVDTLTFNAVTGPDPSEEAGTMARFSLSSAVEGGTWSASAVDQQDSTVSLLLSTPADAPIGLYRLSLEASTGYQGSSFVLGHFILLYNPRCPADAVYMDSDQERQEYVLTQQGFIYQGSAKFINGIPWNFGQFEDGILDICLMLLDTNPKFLKNAGQDCSRRSRPVYVGRVVSAMVNCNDDQGVLQGRWDNNYSDGVSPMSWIGSVDILRRWKDYGCQRVKYGQCWVFAAVACTVLRCLGIPTRVVTNFNSAHDQNSNLLIEYFRNESGEIEGNKSEMIWNFHCWVESWMTRPDLEPGYEGWQALDPTPQEKSEGTYCCGPVPVRAIKEGHLNVKYDAPFVFAEVNADVVNWIRQKDGSLRKSINHLVVGLKISTKSVGRDEREDITHTYKYPEGSEEEREAFVRANHLNKLATKEEAQEETGVAMRIRVGQNMTMGSDFDIFAYITNGTAESHECQLLLCARIVSYNGVLGPVCSTNDLLNLTLDPFSENSIPLHILYEKYGDYLTESNLIKVRGLLIEPAANSYVLAERDIYLENPEIKIRVLGEPKQNRKLIAEVSLKNPLPVPLLGCIFTVEGAGLTKDQKSVEVPDPVEAGEQAKVRVDLLPTEVGLHKLVVNFECDKLKAVKGYRNVIIGPA
polymerization of I-κβα on 4-12% NuPAGE [1]: both the intact I-κBα and the mutant I-κBα, the phosphorylation sites of which were modified, were polymerized to high-molecular weight polymers, by transglutaminase
polymerization of I-κβα on 4-12% NuPAGE [2]: both the intact I-κBα and the mutant I-κBα, the phosphorylation sites of which were modified, were polymerized to high-molecular weight polymers, by transglutaminase
